# Laboratory results from PMC3462767, “Engineering a Disulfide Bond in the Lid Hinge Region of Rhizopus chinensis Lipase: Increased Thermostability and Altered Acyl Chain Length Specificity” (PLoS ONE, 2012).
# Columns and labels:
# [1] = test system: CC(=O)Oc1ccc([N+](=O)[O-])cc1; assay: purified protein; conditions: free enzyme; emulsified substrate
# [2] = test system: CCCCCCCCCCCCCCCC(=O)Oc1ccc([N+](=O)[O-])cc1; assay: purified protein; conditions: free enzyme; emulsified substrate
# [3] = test system: CC(=O)Oc1ccc([N+](=O)[O-])cc1; assay: p-nitrophenol release, Lineweaver-Burk; assay type: biochemical, Rhizopus microsporus; conditions: RCLCYS, engineered disulfide C95-C214; free enzyme; emulsified substrate
# Text: (§1) p-nitrophenol release, Lineweaver-Burk on RCL (R. chinensis lipase)
# [4] = test system: CCCCCCCCCCCCCCCC(=O)Oc1ccc([N+](=O)[O-])cc1; assay: p-nitrophenol release, Lineweaver-Burk; assay type: biochemical, Rhizopus microsporus; conditions: RCLCYS, engineered disulfide C95-C214; free enzyme; emulsified substrate
# Text: as §1
Substance,Km [1],kcat [1],Km [2],kcat [2],Km [3],kcat [3],Km [4],kcat [4]
RCL (R. chinensis lipase) (Rhizopus microsporus var. chinensis),295 ± 6 µM,17.7 ± 0.2 s⁻¹,304 ± 7 µM,18.9 ± 0.4 s⁻¹,–,–,–,–
RCL (R. chinensis lipase) (Rhizopus microsporus var. chinensis; F215C/F334C),–,–,–,–,298 ± 8 µM,17.3 ± 0.2 s⁻¹,450 ± 6 µM,18.4 ± 0.2 s⁻¹
